Measurements taken from PMC9352680, “A comprehensive thermodynamic model for RNA binding by the Saccharomyces cerevisiae Pumilio protein PUF4”.

T1: PUF4 RNA-binding domain (Saccharomyces cerevisiae, UniProt P25339 537-888)
T1 sequence: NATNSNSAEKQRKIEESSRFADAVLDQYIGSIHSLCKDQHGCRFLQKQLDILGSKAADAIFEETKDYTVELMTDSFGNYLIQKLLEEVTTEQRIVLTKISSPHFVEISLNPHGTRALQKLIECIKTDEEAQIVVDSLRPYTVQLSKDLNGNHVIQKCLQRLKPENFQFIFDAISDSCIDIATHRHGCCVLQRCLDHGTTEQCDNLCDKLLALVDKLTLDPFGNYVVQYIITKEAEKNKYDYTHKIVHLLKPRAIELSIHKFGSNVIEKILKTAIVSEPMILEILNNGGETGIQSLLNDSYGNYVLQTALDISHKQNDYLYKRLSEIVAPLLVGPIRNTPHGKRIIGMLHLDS


Molecular target: T1, PUF4 RNA-binding domain
Experiment: Mg; RNA-MaP; 20 mM Na-HEPES pH 7.4, 30 mM KOAc, 0.75 mM MgCl2, 0.1% Tween-20, 5% glycerol, 0.1 mg/mL BSA, 2 mM DTT; 25 C; 0.0125-409.6 nM protein
Settings: tags: N-His6-TEV cleaved; C-SNAP kept, Cy3B-labelled; label: tethered on chip by stalled RNA polymerase

| Binder | Kd [nM] |
| --- | --- |
| UCUCUUUAUAUUAUUUUCUCUU (ssRNA) [Ib_S1_P5E.1_K5.1_C5.1_H5.1_[G2A]_A5.1_F5.1_[A10T]_T5.1] | 473 |
| UCUCUUUUUAUUAUUUUCUCUU (ssRNA) [Ib_S1_P5E.1_K5.1_C5.1_H5.1_[G2T]_A5.1_F5.1_[A10T]_T5.1] | > 2300 |
| UCUCUUUAUAUUAUUAUCUCUU (ssRNA) [Ia_S1_P5E.1_K5.1_C5.1_H5.1_[G2A]_A5.1_F5.1_T5.1] | 367 |
| UCUCUUUAUAUUAUUCUCUCUU (ssRNA) [Ib_S1_P5E.1_K5.1_C5.1_H5.1_[G2A]_A5.1_F5.1_[A10C]_T5.1] | 462 |
| Ie_S2_P3E.2_K3.1_C3.2_H3.1_A3.1_F3.1_[+7T]_T3.2 (ssRNA) RNA: UUUGAUUAAUAUGAUAUCGUUCUUUCUCUUGUAUAUUAUAUUCUUUCUCGAUAUCAUAUUAAUCUUU | 0.308 |
| Id_ii_S2_P4E.3_K4.2_C4.2_[C-2G]_[T-1C]_H4.2_A4.1_F4.1_T4.2_[G10C]_[T11C] (ssRNA) RNA: UUUGAUUAAUAUGAUAUCGUUCUUUCUGCUAUAUAUUACCUUCUUUCUCGAUAUCAUAUUAAUCUUU | 23.6 |
| Id_ii_S2_P4E.3_K4.2_C4.2_[C-2T]_[T-1A]_H4.2_A4.1_F4.1_T4.2_[G10C]_[T11C] (ssRNA) RNA: UUUGAUUAAUAUGAUAUCGUUCUUUCUUAUAUAUAUUACCUUCUUUCUCGAUAUCAUAUUAAUCUUU | 14.9 |
| Id_ii_S2_P4E.3_K4.2_C4.2_[C-2T]_[T-1C]_H4.2_A4.1_F4.1_T4.2_[G10C]_[T11C] (ssRNA) RNA: UUUGAUUAAUAUGAUAUCGUUCUUUCUUCUAUAUAUUACCUUCUUUCUCGAUAUCAUAUUAAUCUUU | 8.5 |
| Id_ii_S2_P4E.3_K4.2_C4.2_[C-2G]_H4.2_A4.1_F4.1_T4.2_[G10T]_[T11G] (ssRNA) RNA: UUUGAUUAAUAUGAUAUCGUUCUUUCUGUUAUAUAUUAUGUUCUUUCUCGAUAUCAUAUUAAUCUUU | 11.2 |
| Id_ii_S2_P4E.3_K4.2_C4.2_[C-2T]_[T-1G]_H4.2_A4.1_F4.1_T4.2_[G10A]_[T11A] (ssRNA) RNA: UUUGAUUAAUAUGAUAUCGUUCUUUCUUGUAUAUAUUAAAUUCUUUCUCGAUAUCAUAUUAAUCUUU | 2.31 |
| Id_ii_S2_P4E.3_K4.2_C4.2_[C-2T]_[T-1G]_H4.2_A4.1_F4.1_T4.2 (ssRNA) RNA: UUUGAUUAAUAUGAUAUCGUUCUUUCUUGUAUAUAUUAGUUUCUUUCUCGAUAUCAUAUUAAUCUUU | 1.86 |
| Id_ii_S2_P4E.3_K4.2_C4.2_[C-2T]_[T-1G]_H4.2_A4.1_F4.1_T4.2_[G10T]_[T11G] (ssRNA) RNA: UUUGAUUAAUAUGAUAUCGUUCUUUCUUGUAUAUAUUAUGUUCUUUCUCGAUAUCAUAUUAAUCUUU | 2.66 |
| Id_ii_S2_P4E.3_K4.2_C4.2_[C-2G]_[T-1C]_H4.2_A4.1_F4.1_T4.2_[G10C]_[T11G] (ssRNA) RNA: UUUGAUUAAUAUGAUAUCGUUCUUUCUGCUAUAUAUUACGUUCUUUCUCGAUAUCAUAUUAAUCUUU | 37.1 |
| Id_ii_S2_P4E.3_K4.2_C4.2_[C-2T]_[T-1G]_H4.2_A4.1_F4.1_T4.2_[G10A]_[T11C] (ssRNA) RNA: UUUGAUUAAUAUGAUAUCGUUCUUUCUUGUAUAUAUUAACUUCUUUCUCGAUAUCAUAUUAAUCUUU | 4.44 |
| Id_ii_S2_P4E.3_K4.2_C4.2_[C-2G]_[T-1C]_H4.2_A4.1_F4.1_T4.2_[G10A] (ssRNA) RNA: UUUGAUUAAUAUGAUAUCGUUCUUUCUGCUAUAUAUUAAUUUCUUUCUCGAUAUCAUAUUAAUCUUU | 16.7 |
| Id_ii_S2_P4E.3_K4.2_C4.2_[C-2G]_[T-1C]_H4.2_A4.1_F4.1_T4.2_[G10A]_[T11C] (ssRNA) RNA: UUUGAUUAAUAUGAUAUCGUUCUUUCUGCUAUAUAUUAACUUCUUUCUCGAUAUCAUAUUAAUCUUU | 57.7 |
| Id_ii_S2_P4E.2_K4.1_C4.2_H4.1_A4.1_F4.1_T4.2_[T11C] (ssRNA) RNA: UUUGAUUAAUAUGAUAUCGUUCUUUCUCUUGUAUAUUAGCUUCUUUCUCGAUAUCAUAUUAAUCUUU | 0.275 |
| Id_ii_S2_P4E.3_K4.2_C4.2_[C-2T]_H4.2_A4.1_F4.1_T4.2_[G10C]_[T11A] (ssRNA) RNA: UUUGAUUAAUAUGAUAUCGUUCUUUCUUUUAUAUAUUACAUUCUUUCUCGAUAUCAUAUUAAUCUUU | 8.41 |
| Id_ii_S2_P4E.3_K4.2_C4.2_[C-2G]_[T-1C]_H4.2_A4.1_F4.1_T4.2_[G10T]_[T11G] (ssRNA) RNA: UUUGAUUAAUAUGAUAUCGUUCUUUCUGCUAUAUAUUAUGUUCUUUCUCGAUAUCAUAUUAAUCUUU | 29.1 |
| Id_ii_S2_P4E.3_K4.2_C4.2_[C-2G]_H4.2_A4.1_F4.1_T4.2_[G10A]_[T11A] (ssRNA) RNA: UUUGAUUAAUAUGAUAUCGUUCUUUCUGUUAUAUAUUAAAUUCUUUCUCGAUAUCAUAUUAAUCUUU | 13.7 |
| Id_ii_S2_P4E.3_K4.2_C4.2_[C-2T]_[T-1A]_H4.2_A4.1_F4.1_T4.2_[G10T] (ssRNA) RNA: UUUGAUUAAUAUGAUAUCGUUCUUUCUUAUAUAUAUUAUUUUCUUUCUCGAUAUCAUAUUAAUCUUU | 14.9 |
| Id_ii_S2_P4E.3_K4.2_C4.2_[C-2T]_[T-1C]_H4.2_A4.1_F4.1_T4.2_[G10T]_[T11C] (ssRNA) RNA: UUUGAUUAAUAUGAUAUCGUUCUUUCUUCUAUAUAUUAUCUUCUUUCUCGAUAUCAUAUUAAUCUUU | 7 |

| Binder | Kd [nM] |
| --- | --- |
| Id_ii_S2_P4E.3_K4.2_C4.2_[C-2T]_[T-1C]_H4.2_A4.1_F4.1_T4.2_[G10T]_[T11A] (ssRNA) RNA: UUUGAUUAAUAUGAUAUCGUUCUUUCUUCUAUAUAUUAUAUUCUUUCUCGAUAUCAUAUUAAUCUUU | 13.5 |
| Id_ii_S2_P4E.2_K4.1_C4.2_H4.1_A4.1_F4.1_T4.2_[G10A]_[T11C] (ssRNA) RNA: UUUGAUUAAUAUGAUAUCGUUCUUUCUCUUGUAUAUUAACUUCUUUCUCGAUAUCAUAUUAAUCUUU | 0.566 |
| Id_ii_S2_P4E.2_K4.1_C4.2_H4.1_A4.1_F4.1_T4.2_[G10A]_[T11A] (ssRNA) RNA: UUUGAUUAAUAUGAUAUCGUUCUUUCUCUUGUAUAUUAAAUUCUUUCUCGAUAUCAUAUUAAUCUUU | 0.537 |
| Id_ii_S2_P4E.3_K4.2_C4.2_[C-2T]_[T-1C]_H4.2_A4.1_F4.1_T4.2_[G10C]_[T11G] (ssRNA) RNA: UUUGAUUAAUAUGAUAUCGUUCUUUCUUCUAUAUAUUACGUUCUUUCUCGAUAUCAUAUUAAUCUUU | 8.91 |
| Id_ii_S2_P4E.3_K4.2_C4.2_[C-2T]_[T-1C]_H4.2_A4.1_F4.1_T4.2_[G10A]_[T11A] (ssRNA) RNA: UUUGAUUAAUAUGAUAUCGUUCUUUCUUCUAUAUAUUAAAUUCUUUCUCGAUAUCAUAUUAAUCUUU | 18.5 |
| Id_ii_S2_P4E.3_K4.2_C4.2_[C-2T]_[T-1C]_H4.2_A4.1_F4.1_T4.2_[G10C]_[T11A] (ssRNA) RNA: UUUGAUUAAUAUGAUAUCGUUCUUUCUUCUAUAUAUUACAUUCUUUCUCGAUAUCAUAUUAAUCUUU | 11.5 |
| Id_ii_S2_P4E.3_K4.2_C4.2_[C-2T]_[T-1A]_H4.2_A4.1_F4.1_T4.2_[T11C] (ssRNA) RNA: UUUGAUUAAUAUGAUAUCGUUCUUUCUUAUAUAUAUUAGCUUCUUUCUCGAUAUCAUAUUAAUCUUU | 10.2 |
| Id_ii_S2_P4E.3_K4.2_C4.2_[C-2T]_[T-1A]_H4.2_A4.1_F4.1_T4.2_[G10A] (ssRNA) RNA: UUUGAUUAAUAUGAUAUCGUUCUUUCUUAUAUAUAUUAAUUUCUUUCUCGAUAUCAUAUUAAUCUUU | 17 |
| Id_ii_S2_P4E.2_K4.1_C4.2_H4.1_A4.1_F4.1_T4.2_[G10A] (ssRNA) RNA: UUUGAUUAAUAUGAUAUCGUUCUUUCUCUUGUAUAUUAAUUUCUUUCUCGAUAUCAUAUUAAUCUUU | 0.317 |
| Id_ii_S2_P4E.3_K4.2_C4.2_[C-2T]_[T-1A]_H4.2_A4.1_F4.1_T4.2_[G10C]_[T11A] (ssRNA) RNA: UUUGAUUAAUAUGAUAUCGUUCUUUCUUAUAUAUAUUACAUUCUUUCUCGAUAUCAUAUUAAUCUUU | 17.5 |
| Id_ii_S2_P4E.3_K4.2_C4.2_[C-2T]_[T-1C]_H4.2_A4.1_F4.1_T4.2_[G10A]_[T11C] (ssRNA) RNA: UUUGAUUAAUAUGAUAUCGUUCUUUCUUCUAUAUAUUAACUUCUUUCUCGAUAUCAUAUUAAUCUUU | 8.95 |
| Id_ii_S2_P4E.3_K4.2_C4.2_[C-2T]_[T-1C]_H4.2_A4.1_F4.1_T4.2_[G10A] (ssRNA) RNA: UUUGAUUAAUAUGAUAUCGUUCUUUCUUCUAUAUAUUAAUUUCUUUCUCGAUAUCAUAUUAAUCUUU | 8.89 |
| Id_ii_S2_P4E.3_K4.2_C4.2_[C-2G]_[T-1C]_H4.2_A4.1_F4.1_T4.2_[G10T]_[T11C] (ssRNA) RNA: UUUGAUUAAUAUGAUAUCGUUCUUUCUGCUAUAUAUUAUCUUCUUUCUCGAUAUCAUAUUAAUCUUU | 22.4 |
| Id_ii_S2_P4E.3_K4.2_C4.2_[C-2T]_H4.2_A4.1_F4.1_T4.2_[G10C]_[T11C] (ssRNA) RNA: UUUGAUUAAUAUGAUAUCGUUCUUUCUUUUAUAUAUUACCUUCUUUCUCGAUAUCAUAUUAAUCUUU | 8.62 |
| Id_ii_S2_P4E.3_K4.2_C4.2_[C-2G]_[T-1C]_H4.2_A4.1_F4.1_T4.2_[G10C]_[T11A] (ssRNA) RNA: UUUGAUUAAUAUGAUAUCGUUCUUUCUGCUAUAUAUUACAUUCUUUCUCGAUAUCAUAUUAAUCUUU | 56.6 |
| Id_ii_S2_P4E.3_K4.2_C4.2_[C-2G]_H4.2_A4.1_F4.1_T4.2_[G10T] (ssRNA) RNA: UUUGAUUAAUAUGAUAUCGUUCUUUCUGUUAUAUAUUAUUUUCUUUCUCGAUAUCAUAUUAAUCUUU | 7.68 |
| Id_ii_S2_P4E.3_K4.2_C4.2_[C-2G]_[T-1G]_H4.2_A4.1_F4.1_T4.2_[G10A] (ssRNA) RNA: UUUGAUUAAUAUGAUAUCGUUCUUUCUGGUAUAUAUUAAUUUCUUUCUCGAUAUCAUAUUAAUCUUU | 57 |
| Id_ii_S2_P4E.3_K4.2_C4.2_[C-2T]_[T-1C]_H4.2_A4.1_F4.1_T4.2_[G10C] (ssRNA) RNA: UUUGAUUAAUAUGAUAUCGUUCUUUCUUCUAUAUAUUACUUUCUUUCUCGAUAUCAUAUUAAUCUUU | 6.91 |
| Id_ii_S2_P4E.3_K4.2_C4.2_[C-2G]_H4.2_A4.1_F4.1_T4.2_[G10C] (ssRNA) RNA: UUUGAUUAAUAUGAUAUCGUUCUUUCUGUUAUAUAUUACUUUCUUUCUCGAUAUCAUAUUAAUCUUU | 26.9 |
| Id_ii_S2_P4E.3_K4.2_C4.2_[C-2G]_H4.2_A4.1_F4.1_T4.2_[G10T]_[T11A] (ssRNA) RNA: UUUGAUUAAUAUGAUAUCGUUCUUUCUGUUAUAUAUUAUAUUCUUUCUCGAUAUCAUAUUAAUCUUU | 53.5 |
| UCUCUUUAUAUUAUUGUCUCUU (ssRNA) [Ib_S1_P5E.1_K5.1_C5.1_H5.1_[G2A]_A5.1_F5.1_[A10G]_T5.1] | 242 |
